Results from patent publication US20200392230A1 (QLB BIOTHERAPEUTICS, published 2020).

B1: QLB1005-0003 (bispecific antibody)
chain 1: EVQLVESGGGLVQPGGSLKLSCAASGFTFNTYAMNWVRQASGKGLEWVARIRSKYNNYATYYADSVKDRFTISRDDSKNTLYLQMNSLKTEDTAVYYCVRHGNFGNSYVSWFAYWGQGTLVTVSSGGGGSGGGGSGGGGSQAVVTQEPSLTVSPGGTVTLTCRSSTGAVTTSNYANWVQQKPGQAPRGLIGGTNKRAPGVPARFSGSLLGDKAALTLSGAQPEDEAEYYCALWYSNLWVFGTGTKVTVLGGGGSASTKGPSVFPLAPSSKSTSGGTAALGCLVKDYFPEPVTVSWNSGALTSGVHTFPAVLQSSGLYELVSVVTVPSSSLGTQTYICNVNHKPSNTKVDKKVEPKSC
chain 2: QVQLVQSGAEVKKPGASVKVSCKASGYTFTSYNMHWVRQAPGQGLEWIGAIYPGNGDTSYNQKFKGKATLTADKSTSTAYMELSSLRSEDTAVYYCARSTYYGGDWYFNVWGQGTLVTVSSGGGGSGGGGSGGGGSQIVLTQSPATLSLSPGERATLSCRASSSVSYIHWFQQKPGQAPRPWIYATSNLASGVPARFSGSGSGTDYTLTISSLEPEDFAVYYCQQWTSNPPTFGQGTKVEIKGGGGSRTVAAPSVFIFPPSDEQLKSGTASVVCLLNNFYPREAKVQWKVDNALQSGNSQESVTEQDSKDSTYSLLSSLTLSKADYEKHKVYACEVTHQGLSSPVTKSFNRGEC
notes: NCI/NIH CH1-CK stabilized Fab format; the CH1 and CK domains form a heterodimer via a disulphide bond; also called anti-CD3×CD20 BsAb; Fab format (VH-VL-CH1/VH-VL-CK)
B2: QLB1005-0001 (bispecific antibody)
chain 1: QAVVTQEPSLTVSPGGTVTLTCRSSTGAVTTSNYANWVQQKPGQAPRGLIGGTNKRAPGVPARFSGSLLGDKAALTLSGAQPEDEAEYYCALWYSNLWVFGTGTKVTVLGGGGSGGGGSGGGGSEVQLVESGGGLVQPGGSLKLSCAASGFTFNTYAMNWVRQASGKGLEWVARIRSKYNNYATYYADSVKDRFTISRDDSKNTLYLQMNSLKTEDTAVYYCVRHGNFGNSYVSWFAYWGQGTLVTVSSGGGGSASTKGPSVFPLAPSSKSTSGGTAALGCLVKDYFPEPVTVSWNSGALTSGVHTFPAVLQSSGLYELVSVVTVPSSSLGTQTYICNVNHKPSNTKVDKKVEPKSC
chain 2: QIVLTQSPATLSLSPGERATLSCRASSSVSYIHWFQQKPGQAPRPWIYATSNLASGVPARFSGSGSGTDYTLTISSLEPEDFAVYYCQQWTSNPPTFGQGTKVEIKGGGGSGGGGSGGGGSQVQLVQSGAEVKKPGASVKVSCKASGYTFTSYNMHWVRQAPGQGLEWIGAIYPGNGDTSYNQKFKGKATLTADKSTSTAYMELSSLRSEDTAVYYCARSTYYGGDWYFNVWGQGTLVTVSSGGGGSRTVAAPSVFIFPPSDEQLKSGTASVVCLLNNFYPREAKVQWKVDNALQSGNSQESVTEQDSKDSTYSLLSSLTLSKADYEKHKVYACEVTHQGLSSPVTKSFNRGEC
notes: NCI/NIH CH1-CK stabilized Fab format; the CH1 and CK domains form a heterodimer via a disulphide bond; also called anti-CD3×CD20 BsAb; Fab format (VL-VH-CH1/VL-VH-CK)
B3: QLB1005-0002 (bispecific antibody, human IgG1)
chain 1: EVQLVESGGGLVQPGGSLKLSCAASGFTFNTYAMNWVRQASGKGLEWVARIRSKYNNYATYYADSVKDRFTISRDDSKNTLYLQMNSLKTEDTAVYYCVRHGNFGNSYVSWFAYWGQGTLVTVSSGGGGSGGGGSGGGGSQAVVTQEPSLTVSPGGTVTLTCRSSTGAVTTSNYANWVQQKPGQAPRGLIGGTNKRAPGVPARFSGSLLGDKAALTLSGAQPEDEAEYYCALWYSNLWVFGTGTKVTVLGGGGSGGGGSGGGGSPKSCDKTHTCPPCPAPEAAGGPSVFLFPPKPKDTLMISRTPEVTCVVVDVSHEDPEVKFNWYVDGVEVHNAKTKPREEQYNSTYRVVSVLTVLHQDWLNGKEYKCKVSNKALGAPIEKTISKAKGQPREPQVCTLPPSRDELTKNQVSLSCAVKGFYPSDIAVEWESNGQPENNYKTTPPVLDSDGSFFLVSKLTVDKSRWQQGNVFSCSVMHEALHNHYTQKSLSLSPGK
chain 2: not shown
notes: scFv-Fc format with Knob-in-Hole and L234A, L235A (LALA) mutations in a human IgG1 Fc; The text also prints the name as QLB1005-02000; also called QLB1005-02000; QLB-1005-02000

Key:
CD20 = biological target: T1, CD20 (UniProt P11836 1-297, limits assumed); assay: FACS, cell surface binding on Raji cells
T1 construct: whole, on cells; also called CD20 on Raji cells; CD20 on Daudi cells
T1 sequence (looked up): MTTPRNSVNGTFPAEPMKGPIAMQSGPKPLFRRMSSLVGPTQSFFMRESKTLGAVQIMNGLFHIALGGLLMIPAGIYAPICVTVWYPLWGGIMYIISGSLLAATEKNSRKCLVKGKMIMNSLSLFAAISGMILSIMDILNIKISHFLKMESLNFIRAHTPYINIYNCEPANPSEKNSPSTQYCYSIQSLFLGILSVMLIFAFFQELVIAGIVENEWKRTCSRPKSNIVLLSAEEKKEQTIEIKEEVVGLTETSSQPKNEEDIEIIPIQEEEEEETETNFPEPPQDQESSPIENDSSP
Method: (§1) After washing in phosphate buffered saline (PBS), fluorescence conjugated secondary antibodies were added to the cell mixture. The stained cells were analyzed in an LSR II FACS machine (BD Biosciences). Mean fluorescence intensity (MFI) was used to indicate the binding strength of the tested antibodies.

CD3 = biological target: T2, CD3 (UniProt P07766 23-207); assay: FACS, cell surface binding on Jurkat cells (CD3+), fluorescent secondary antibody, MFI
T2 construct: whole, on cells; In the functional assays CD3 stood on engineered effector cells or on T cells of human PBMCs; also called CD3 on Jurkat cells; TCR/CD3 complex
Method: as §1

T2 sequence (P07766 23-207): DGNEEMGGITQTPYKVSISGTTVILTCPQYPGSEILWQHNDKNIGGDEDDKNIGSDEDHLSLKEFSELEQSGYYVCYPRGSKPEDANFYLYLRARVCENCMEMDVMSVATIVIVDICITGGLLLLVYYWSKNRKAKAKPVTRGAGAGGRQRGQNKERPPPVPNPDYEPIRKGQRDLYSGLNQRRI

| Binder | binding result (CD20) | EC50 (CD3) [nM] |
| --- | --- | --- |
| B1 | binds | – |
| B2 | binds | – |
| B3 | – | 98.2 |
